1 molecule from US20220227861A1 (UNIVERSITY COLLEGE CARDIFF CONSULTANTS, published 2022) can be followed below.

This assay concerns the target T1, ZIP10 (SLC39A10) zinc transporter, endogenous in cells (human, UniProt Q9ULF5 26-831).
T1 construct: Endogenous ZIP10 of MCF-7 cells or of ZIP6-transfected cells
T1 sequence: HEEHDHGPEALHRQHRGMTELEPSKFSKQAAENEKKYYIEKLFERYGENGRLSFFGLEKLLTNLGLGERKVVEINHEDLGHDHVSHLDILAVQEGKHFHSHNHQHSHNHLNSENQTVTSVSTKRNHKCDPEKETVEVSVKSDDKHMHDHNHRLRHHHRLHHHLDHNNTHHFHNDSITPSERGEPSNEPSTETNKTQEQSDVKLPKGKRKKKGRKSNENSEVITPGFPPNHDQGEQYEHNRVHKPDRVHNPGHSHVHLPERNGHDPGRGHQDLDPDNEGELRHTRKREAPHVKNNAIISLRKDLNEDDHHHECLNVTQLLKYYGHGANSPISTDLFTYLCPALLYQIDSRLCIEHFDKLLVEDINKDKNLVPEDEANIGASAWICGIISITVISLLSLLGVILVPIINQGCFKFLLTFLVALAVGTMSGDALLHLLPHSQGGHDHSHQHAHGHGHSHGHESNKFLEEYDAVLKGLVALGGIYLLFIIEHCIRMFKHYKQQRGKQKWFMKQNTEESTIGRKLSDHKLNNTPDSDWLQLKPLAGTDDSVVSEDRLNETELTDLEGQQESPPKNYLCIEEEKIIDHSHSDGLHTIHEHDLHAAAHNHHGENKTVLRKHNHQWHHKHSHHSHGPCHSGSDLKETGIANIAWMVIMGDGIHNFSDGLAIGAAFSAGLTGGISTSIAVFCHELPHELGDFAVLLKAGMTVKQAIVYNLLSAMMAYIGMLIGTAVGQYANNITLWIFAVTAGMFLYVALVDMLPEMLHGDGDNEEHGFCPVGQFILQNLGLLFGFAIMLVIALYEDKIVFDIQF
The assay can be described thus: immunoprecipitation with V5 antibody, Western blot for ZIP10. Here is the method: FIG. 2. […] [A] FACS cell cycle analysis confirms the increase in the G2/M population in nocodazole-treated cells, compared to control. […] Statistical significance is determined by Student's t test. *** p<0.001. [B] Control PLA using either our ZIP6-Y or our ZIP10 antibodies alone in nocodazole-treated MCF-7 cells produces only a few dots in mitotic cells (arrow), compared to FIG. 3D. Scale bar, 20 μm. [C] […] [D] FACS cell cycle analysis confirms the increase in the G2/M population in the non-adherent cells collected using the mitotic shake-off technique, compared to the adherent cells from the same dishes. […] Statistical significance is determined by Student's t test. *** p<0.001. [E] PLA using ZIP6-SC and pY⁷⁰⁵STAT3 antibodies together as well as individual control ZIP6-SC and […] antibodies in nocodazole-treated MCF-7 cells produces only few dots, compared to FIG. 5F.
Cells were harvested, washed with PBS, lysed for 1 hour at 4° C. with lysis buffer pH7.6 (50 mM Tris, 150 mM NaCl, 5 mM EGTA and 1% Triton X-100) with protease inhibitor cocktail for mammalian cells (Signa-Aldrich) and phosphatase inhibitors (2 mM sodium orthovanadate and 50 mM sodium fluoride). Protein was measured using Bio-Rad/Bradford dye-binding protein microassay. Western Blot results of 40 μg/lane from three separate experiments were normalised to GAPDH values. […]
In general terms: A western blot detects proteins with antibodies after separation by electrophoresis.

B1: recombinant ZIP6 wild-type with C-terminal V5 tag (other)
chain: FPQTTEKISPNWESGINVDLAISTRQYHLQQLFYRYGENNSLSVEGFRKLLQNIGIDKIKRIHIHHDHDHHSDHEHHSDHERHSDHEHHSEHEHHSDHDHHSHHNHAASGKNKRKALCPDHDSDSSGKDPRNSQGKGAHRPEHASGRRNVKDSVSASEVTSTVYNTVSEGTHFLETIETPRPGKLFPKDVSSSTPPSVTSKSRVSRLAGRKTNESVSEPRKGFMYSRNTNENPQECFNASKLLTSHGMGIQVPLNATEFNYLCPAIINQIDARSCLIHTSEKKAEIPPKTYSLQIAWVGGFIAISIISFLSLLGVILVPLMNRVFFKFLLSFLVALAVGTLSGDAFLHLLPHSHASHHHSHSHEEPAMEMKRGPLFSHLSSQNIEESAYFDSTWKGLTALGGLYFMFLVEHVLTLIKQFKDKKKKNQKKPENDDDVEIKKQLSKYESQLSTNEEKVDTDDRTEGYLRADSQEPSHFDSQQPAVLEEEEVMIAHAHPQEVYNEYVPRGCKNKCHSHFHDTLGQSDDLIHHHHDYHHILHHHHHQNHHPHSHSQRYSREELKDAGVATLAWMVIMGDGLHNFSDGLAIGAAFTEGLSSGLSTSVAVFCHELPHELGDFAVLLKAGMTVKQAVLYNALSAMLAYLGMATGIFIGHYAENVSMWIFALTAGLFMYVALVDMVPEMLHNDASDHGCSRWGYFFLQNAGMLLGFGIMLLISIFEHKIVFRINF
notes: Expressed by transfection and immunoprecipitated from cell lysate with V5 antibody; also called ZIP6 wild-type (WT); ZIP6/LIV-1/SLC39A6 in pcDNA3.1/V5-His-TOPO; not shown: C-terminal V5 tag from vector pcDNA3.1/V5-His-TOPO
For the molecule B1, the binding result is “binds”.
